These results are taken from patent US20140178390A1 (published 2014).

The assay concerns the target Human CXCR7 (UniProt P25106 1-362). As to the kind of experiment: FACS competition with biotinylated SDF-1.

Sequence of Human CXCR7 (P25106 whole entry): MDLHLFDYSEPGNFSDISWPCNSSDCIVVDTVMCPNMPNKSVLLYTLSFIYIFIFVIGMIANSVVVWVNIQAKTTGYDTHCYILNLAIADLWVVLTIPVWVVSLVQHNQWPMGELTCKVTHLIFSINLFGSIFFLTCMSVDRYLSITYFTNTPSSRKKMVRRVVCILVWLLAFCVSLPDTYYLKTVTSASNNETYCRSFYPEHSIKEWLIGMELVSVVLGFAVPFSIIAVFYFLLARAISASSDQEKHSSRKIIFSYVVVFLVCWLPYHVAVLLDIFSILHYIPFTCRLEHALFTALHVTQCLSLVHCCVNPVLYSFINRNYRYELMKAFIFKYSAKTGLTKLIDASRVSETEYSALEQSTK

B1: Nanobody 07C03 with Tag-1 (VHH)
VHH: EVQLVESGGGLVQAGESLTLSCAASGRTLSAYIMGWFRQAPGKEREFVAGIWSGGYTHLADSAKGRFSISRDNAKNTVYLQMNGLKPEDTAVYYCAAGLRGRQYSNWGQGTQVTVSS
Regarding B1, the IC50 was 7.77 nM.
